The text below walks through data of US7091311.

The term IC50 denotes the concentration needed to halve the response being measured. Low readings indicate greater potency, high ones weaker potency.

*1 amine or outer side, *2 acyl side, *3 side chain or, on linkers, in order; H or OH if unused. Bridges are numbered along the chain shown (N, C = ends). Where no end group is shown, it is not given here. [ ]: non-standard residue; d: D form. NMeSer(Bzl) = N-methyl-O-benzyl-serine, CN([C@@H](COCc1ccccc1)C(=O)[*:2])[*:1]; Phe(4-NO2) = N[C@@H](Cc1ccc([N+](=O)[O-])cc1)C(=O)O; Phe(3,4-Cl2) = N[C@@H](Cc1ccc(Cl)c(Cl)c1)C(=O)O; DiPhAla = diphenylalanine (source's own name); Ser(Bzl) = O=C([C@H](COCc1ccccc1)N[*:1])[*:2]; Phe(4-Cl) = N[C@@H](Cc1ccc(Cl)cc1)C(=O)O; 1Nal = N[C@@H](Cc1cccc2ccccc12)C(=O)O; 2Nal = N[C@@H](Cc1ccc2ccccc2c1)C(=O)O; hPhe = N[C@@H](CCc1ccccc1)C(=O)O; 2Thi = N[C@@H](Cc1cccs1)C(=O)O; Cha = N[C@@H](CC1CCCCC1)C(=O)O; Phg = N[C@H](C(=O)O)c1ccccc1; Tle = CC(C)(C)[C@H](N)C(=O)O; NMeV = CN[C@H](C(=O)O)C(C)C; NMeA = CN[C@@H](C)C(=O)O; Nle = CCCC[C@H](N)C(=O)O; Nva = CCC[C@H](N)C(=O)O; Abu = CC[C@H](N)C(=O)O; Aib = CC(C)(N)C(=O)O; Sar = CNCC(=O)O

For this test, the target named is soluble TPO-R (UniProt P40238). Kind of test: competition ELISA vs MBP-TPO156.
soluble TPO-R, sequence (P40238 26-491): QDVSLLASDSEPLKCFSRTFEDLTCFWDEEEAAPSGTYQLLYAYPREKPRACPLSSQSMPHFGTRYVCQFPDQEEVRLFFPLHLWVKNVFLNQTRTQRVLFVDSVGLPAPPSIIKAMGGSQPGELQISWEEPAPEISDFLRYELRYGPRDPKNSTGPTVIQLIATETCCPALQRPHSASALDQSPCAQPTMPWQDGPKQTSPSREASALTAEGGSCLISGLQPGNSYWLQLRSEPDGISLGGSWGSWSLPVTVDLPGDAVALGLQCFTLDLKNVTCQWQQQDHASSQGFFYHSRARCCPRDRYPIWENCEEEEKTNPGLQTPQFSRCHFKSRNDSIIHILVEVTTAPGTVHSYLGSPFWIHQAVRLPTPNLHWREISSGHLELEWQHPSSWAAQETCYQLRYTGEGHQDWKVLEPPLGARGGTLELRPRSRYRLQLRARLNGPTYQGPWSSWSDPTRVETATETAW
In turn, CADGPTLREWI[NMeV]FC (disulfide 1-14 (inferred); not fully specified) [SEQ ID NO:12 cyclized, S - (N-Me-Val)] showed a half-maximal inhibitory concentration (IC50) of 200000 nM.

Turning to CADGPTLREWIS[hPhe]C (disulfide 1-14 (inferred); not fully specified) [SEQ ID NO:12 cyclized, F - Homo-Phe], the IC50 was under 500 nM. For CADGPTLREWI[Aib]FC (disulfide 1-14 (inferred); not fully specified) [SEQ ID NO:12 cyclized, S - Aib], the IC50 is under 500 nM.

Molecule PTLREWISFC (not fully specified; also: further groups not given here) [[drawing CHEM-US-00041] (SEQ ID NO:191)(SEQ ID NO:191)] showed an IC50 of 200000 nM. Then ADGPTLREWISFC (not fully specified; also: further groups not given here) [[drawing CHEM-US-00006] (SEQ ID NO:173)], with 200000 nM; and CADGPTLREWIS[Cha]C (disulfide 1-14 (inferred); not fully specified) [SEQ ID NO:12 cyclized, F - CHA], with under 500 nM. With CADGPTLREWIS[2Thi]C (disulfide 1-14 (inferred); not fully specified) [SEQ ID NO:12 cyclized, F - Thi], the concentration for half-maximal inhibition (IC50) was under 500 nM.

Consider TLREWISFC (also: further groups not given here) [[drawing CHEM-US-00042] (SEQ ID NO:192)(SEQ ID NO:192)], for which the IC50 came to 200000 nM. Then CADGPTLREWI[Nva]FC (disulfide 1-14 (inferred); not fully specified) [SEQ ID NO:12 cyclized, S - Nva], with under 500 nM; and CADGPTLREWIS[Phe(4-Cl)]C (disulfide 1-14 (inferred); not fully specified) [SEQ ID NO:12 cyclized, F - (p-Cl-Phe)], with under 500 nM. Then ADGPTLREWISFC (also: further groups not given here) [[drawing CHEM-US-00035] (SEQ ID NO:173)(SEQ ID NO:173)], with under 500 nM. With CADGPTLREWIS[2Nal]C (disulfide 1-14 (inferred); not fully specified) [SEQ ID NO:12 cyclized, F - (2-Nal)], the concentration for half-maximal inhibition (IC50) is under 500 nM. As for GPTLREWISFC (not fully specified; also: further groups not given here) [[drawing CHEM-US-00038] (SEQ ID NO:190)(SEQ ID NO:190)], the IC50 was under 500 nM. The molecule CADGPTLREWIS[NMeA]C (disulfide 1-14 (inferred); not fully specified) [SEQ ID NO:12 cyclized, F - (N-Me-Ala)] returned an IC50 of 200000 nM. In turn, CADGPTLREWIS[Ser(Bzl)]C (disulfide 1-14 (inferred); not fully specified) [SEQ ID NO:12 cyclized, F - (Ser(Bzl))] showed a 50% inhibitory concentration (IC50) of under 500 nM. In the case of CADGPTLREWIS[Phe(4-NO2)]C (disulfide 1-14 (inferred); not fully specified) [SEQ ID NO:12 cyclized, F - (p-Nitrophe)], the IC50 was under 500 nM. As to ADGPTLREWISFC (also: further groups not given here) [[drawing CHEM-US-00036] (SEQ ID NO:173)(SEQ ID NO:173)], the IC50 was under 500 nM. Molecule CADGPTLREWI[NMeSer(Bzl)]FC (disulfide 1-14 (inferred); not fully specified) [SEQ ID NO:12 cyclized, S - [N-Me-Ser(Bzl)]] yielded an IC50 of under 200000 nM. For the molecule CADGPTLREWI[Sar]FC (disulfide 1-14 (inferred); not fully specified) [SEQ ID NO:12 cyclized, S - Sar], the 50% inhibitory concentration (IC50) was under 500 nM. The molecule CADGPTLREWIS[Phe(3,4-Cl2)]C (disulfide 1-14 (inferred); not fully specified) [SEQ ID NO:12 cyclized, F - (3,4-di-Cl-Phe)] yielded a half-maximal inhibitory concentration (IC50) of under 500 nM.

Consider CADGPTLREWI[NMeA]FC (disulfide 1-14 (inferred); not fully specified) [SEQ ID NO:12 cyclized, S - (N-Me-Ala)], for which the IC50 is under 200000 nM.

As for CADGPTLREWI[Abu]FC (disulfide 1-14 (inferred); not fully specified) [SEQ ID NO:12 cyclized, S - Abu], the IC50 is under 500 nM. As for PTLREWISFC (not fully specified; also: further groups not given here) [[drawing CHEM-US-00040] (SEQ ID NO:191)(SEQ ID NO:191)], the figure is under 500 nM; as for TLREWISFC (also: further groups not given here) [[drawing CHEM-US-00043] (SEQ ID NO:192)(SEQ ID NO:192)], 200000 nM. As for ADGPTLREWISFC (not fully specified; also: further groups not given here) [[drawing CHEM-US-00013] (SEQ ID NO:173)], the figure is under 500 nM; as for CADGPTLREWI[Tle]FC (disulfide 1-14 (inferred); not fully specified) [SEQ ID NO:12 cyclized, S - (t-Bu-Gly)], under 500 nM; as for CADGPTLREWI[Nle]FC (disulfide 1-14 (inferred); not fully specified) [SEQ ID NO:12 cyclized, S - (Nor-Leu)], under 500 nM. The molecule ADGPTLREWISFC (also: further groups not given here) [[drawing CHEM-US-00027] / [drawing CHEM-US-00028] (SEQ ID NO:173)] yielded a 50% inhibitory concentration (IC50) of under 500 nM.

For GPTLREWISFC (not fully specified; also: further groups not given here) [[drawing CHEM-US-00039] (SEQ ID NO:190)(SEQ ID NO:190)], the IC50 was under 200000 nM.

As to CADGPTLREWIS[DiPhAla]C (disulfide 1-14 (inferred); not fully specified) [SEQ ID NO:12 cyclized, F - (DiPh - Ala)], the concentration for half-maximal inhibition (IC50) is under 500 nM.

In turn, CADGPTLREWIS[1Nal]C (disulfide 1-14 (inferred); not fully specified) [SEQ ID NO:12 cyclized, F - (1-Nal)] showed an IC50 of under 500 nM. Consider CADGPTLREWIS[Phg]C (disulfide 1-14 (inferred); not fully specified) [SEQ ID NO:12 cyclized, F - (Phenylgly)], for which the concentration for half-maximal inhibition (IC50) was under 500 nM. For the molecule CADGPTLREWIS[Pyridylala]C (not fully specified (bridges); also: cyclized, type not given here) [SEQ ID NO:12 cyclized, F - (Pyridylala)], the half-maximal inhibitory concentration (IC50) is under 500 nM.
